# Measurements: paper PMC12912425, “Collagen-targeted tracers for molecular imaging of atrial fibrosis and sensitive detection of atrial fibrillation” (npj Cardiovascular Health, 2025)
# Experiments:
# [1] = test system: MMP-2-degraded collagen IV
# Procedure: Ex vivo fluorescent imaging was performed according to our published protocol[26]. In brief, fluorescently-tagged EP-3533 or the T-peptide were injected intravenously into mice at 0.5 mg/kg via the tail vein. The S-peptide was delivered at 0.466 mg/kg, being the identical mole equivalent to the T-peptide (0.258 µmol/kg). Injections were performed by a person blinded to the administered substance. Animals were humanely euthanised 4 h post-injection by an overdose of ketamine (300 mg/kg) and xylazine (30 mg/kg) and perfused via the heart with 20 ml of PBS. The liver, lung, spleen, kidney, brain, thigh muscle and the heart were next harvested and the atria separated from the ventricles. Organs were then scanned on the Odyssey CLx NIRF 2-D scanner (Li-Cor Biosciences, NE, USA) at 169 µm resolution using the ‘Manual L1’ or ‘L2’ intensity and 0.5 mm focus offset settings. A noninjected mouse served for background correction. The mean fluorescence intensity value per pixel (1 pixel = 169 × 169 µm = 0.0285 mm^2) were then extracted from regions of interest using Image Studio 5.2 software (Li-Cor Biosciences).
# [2] = Mouse plasma stability; format: in vitro ADME; conditions: Cy5.5-T-peptide 100 µg in 200 µL naïve C57BL/6 mouse plasma (citrated), 37 °C, acetonitrile precipitation, HPLC C18, 280 nm
# Procedure: Cy5.5-T-Peptide (100 µg, 10 µL in PBS) was added to 200 µL of naïve C57BL/6 mouse plasma and the sample was incubated at 37 °C over 4 h. Aliquots (40 µL) were taken from the mixture at 5, 10, 30, 60 and 240 min, and then added to 40 µL of acetonitrile. The formed precipitates were separated by centrifugation and the supernatant was analyzed by HPLC. The percentage of decomposition at each timepoint was then calculated from the chromatograms (Supplementary Fig. 1). The HPLC conditions were: Phenomenex Luna® 5 µm C18(2) 100 Å, LC Column 150 ×4.6 mm at a flow rate of 1 mL/min (Method: 5–95% buffer B to A over 20 min, λabs = 280 nm).
# [3] = Blood clearance of Cy5.5-labeled tracers after IV injection; format: in vivo, mouse; conditions: Cy5.5-conjugated tracer 0.5 mg/kg IV; mixed male/female 'AF + HF' and control mice, 28-31 weeks; blood NIR fluorescence at 2-4, 12, 240 min; one-phase decay fit; Mean±SEM, n=4 (EP-3533), n=8 (T-peptide)
# Procedure: ‘AF + HF’ mice and non-transgenic controls (28–31 weeks) were intravenously injected with Cy5.5-labeled T-peptide or EP-3533 (0.5 mg/kg), as described above. Blood samples (2.5 µl) were collected from the opposite tail vein at 2–4, 12 and 240 min, and diluted in 47.5 µl of citrated PBS (0.32% w/v sodium citrate). 50 µl samples were transferred into 96-well plates (Optiplate, black-walled, transparent bottom; PerkinElmer, MA, USA) and scanned on the Odyssey CLx NIRF scanner using the ‘Manual L1’ intensity and 3 mm focus offset settings. Following subtraction of unlabeled blood background, the total fluorescence per well was plotted against time. The blood fluorescence levels at t = 0 and half-life were extrapolated from a one-phase decay non-linear regression, and the data was presented as percentage from the value of t = 0[26].
# [4] = 'AF + HF' mice, Cy5.5 conjugates equimolar 0.258 µmol/kg IV, 4 h, ex vivo NIR, S-peptide signal corrected for brightness, n=5 per group
substance,measurement,setting,value
TLTYTWS [Cy5.5-T-peptide],T-peptide binding in atria relative to the S-peptide,[1]; [4],1.72 fold
same,T-peptide binding in ventricles relative to the S-peptide,[1]; [4],1.78 fold
same,atria/ventricles retention in 'AF + HF' mice,"[1]; mouse, in vivo",2.61 fold
same,tracer remaining intact after 60 min in mouse plasma,[2]; 60 min,60%
same,tracer remaining intact after 4 h in mouse plasma,[2]; 240 min,22%
same,blood (circulating) half-life,[3],9.23 ± 0.9 min
